{
  "source": "the nanobody polyreactivity screen of Harvey et al. (2022)",
  "data": [
    {"assay": "yeast display, Sf9 membrane polyspecificity reagent, FACS + sequencing; frameworks hold sequencing errors", "how_it_was_run": "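Galactose induction of a Saccharomyces cerevisiae BJ5465 synthetic nanobody display library ran 36–48 hours. The cells were then stained for 1 hour at 4 °C with 10% biotinylated, detergent-solubilized Sf9 membrane reagent, pulled down on streptavidin microbeads and FACS-sorted into low and high (top ~1%) gates on expression and reagent-binding fluorescence. Labels for polyreactivity follow the gate of origin.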", "values": [
      {"sequence": "QVQLVESGGGLVQAGGILRLICAASGSTFSTYAMGWYRPAPGKERELVAAIRFSGGTTYYADSVKGRFTISRDNAKNSVYLQMYCLKPEDTAVYYCAAVYISRNFFGRARGDYWGQGTEVTVSS", "polyreactivity (PSR sort gate)": "low polyreactivity"},
      {"sequence": "QVQLVESGGGLVQAGGILRLSCAAAGFIFYRYAMGWYREAPGKEREFVAAISRSGGSTYYADSVKGRFTISRDNAKNTVYLQMNSLKPEDTAVYYCAAGRVTISYFQDRLTTYDYWGQGTQVTVSS", "polyreactivity (PSR sort gate)": "high polyreactivity"},
      {"sequence": "QVQLVESGGGLVQAGGILRLSCAASGFIFWDYAMGWYRQAPGTERELVADISDSGGDTYYADSVKGRFTISRDNAKNTVYLQMNSLKPEDTAVYYCAADVELWVFRGQQYDYWGQVTQVTVSS", "polyreactivity (PSR sort gate)": "low polyreactivity"},
      {"sequence": "QVQLVESGGGLVQAGGILRLSCAASGFIFYFYAMGWYRQAPGKERELVAAISWSGGSTYYADSVKGRFTISRDNAKINVYLQMNSLKAEDTAVYFCAADLYHKYDYWGQGTQVTVSS", "polyreactivity (PSR sort gate)": "low polyreactivity"},
      {"sequence": "QVQLVESGGGLVQAGGILRLSCAASGFTFGPNTMGWNRQAPGKERELVAAISRSGGSTYYADSVKGRFTISRDNAKNTVYLQMNSLNPEDTAVYYCAAYSPLSGGRMDYWGQGTQVNVSS", "polyreactivity (PSR sort gate)": "high polyreactivity"},
      {"sequence": "QVQLVESGGGLVQAGGILRLSCAASGFTFISNAMGWYRQAPGKERELVAAISSSGGRTYYADSVKGRFTISRDNAKNTVYLQMNRLKPEDTAVYYCNADRSLLYSRKIEYDYWGQGTQVTVSS", "polyreactivity (PSR sort gate)": "low polyreactivity"},
      {"sequence": "QVQLVESGGGLVQAGGILRLSCAASGFTFLAYAMGWYRQAHGKERELVAAISAYSGRTRYADSVKGRFTISRDNAKNTVYLQMNSLKPEDTAVNYCAARYRGTYRRDYWGQGTQVTVSS", "polyreactivity (PSR sort gate)": "high polyreactivity"},
      {"sequence": "QVQLVESGGGLVQAGGILRLSCAASGFTFTYYAMGWYIQAPGKERELVAAITRDDSTNYADSVKGRFTISRDNAKNTVYLQMNSLKPEDTAVYYCAADSWYPSYGYWGQGTQVTVSS", "polyreactivity (PSR sort gate)": "low polyreactivity"},
      {"sequence": "QVQLVESGGGLVQAGGILRLSCAASGIIFDTNAMGWYRQAPGKERELVASISKRGGSTYYADSVKGRFTISRDNAKNTVYFQMNSLKPEDTAVYYCNALRRRLYHDDYWGQGTQVTVSS", "polyreactivity (PSR sort gate)": "high polyreactivity"},
      {"sequence": "QVQLVESGGGLVQAGGILRLSCAASGIIFRVNAMGWYRKAPGKERELVAAISGSGGRTYYADSVKGRFTISRDNAKNTVYLQMNSVKPEDTAVYYCAAHLLHYRGDYWGQGTQETVSS", "polyreactivity (PSR sort gate)": "high polyreactivity"},
      {"sequence": "QVQLVESGGGLVQAGGILRLSCAASGIIFVSYDRGWYRQAPGKERELVAAINRGGRTYYADSVKGRFTISRDNAKNTVYLQMNSLKPEDTAVYYCAAQFHFRPFSWTYDYWGQGTQVTVSS", "polyreactivity (PSR sort gate)": "high polyreactivity"},
      {"sequence": "QVQLVESGGGLVQAGGILRLSCAASGITFRCYAMVWYRQAPGKERELVAAITTGGSTKYADSVKGRFTISRDNAKKSVYLQMNSLKPEDTAVYYCAARGRYAGGYWGQGTQVTVSS", "polyreactivity (PSR sort gate)": "high polyreactivity"},
      {"sequence": "QVQLVESGGGLVQAGGILRLSCAASGITFRYYAMGWYRQAPGKERELVAAITGNGGGTYADSVKGRFTISRDTAKYTGYLQMNSLKPEVTAVNYCSADYGRRWGYDYWGQGTQVTVSS", "polyreactivity (PSR sort gate)": "low polyreactivity"},
      {"sequence": "QVQLVESGGGLVQAGGILRLSCAASGITFVRNAMGWYRQAPGKDREFVAAINSIVGRTYYADSVKGRFTISRDNAKNTVYLQMNSLKPEDTAVYDCAADSNVRYGMDYWGLGTQVTVSS", "polyreactivity (PSR sort gate)": "low polyreactivity"},
      {"sequence": "QVQLVESGGGLVQAGGILRLSCAASGLIFGYYDMGWYRQARGKEREFVAGITYRGSSTYYADSVKGRFTISRDNAKNTVYLQMNSLKPEDTAVYYCAKYKRKKLTTNYYYWGQGTQVTVSS", "polyreactivity (PSR sort gate)": "high polyreactivity"},
      {"sequence": "QVQLVESGGGLVQAGGILRLSCAASGLIFIGYAMGWYRQAPGKERELVASIRGVGSTNYADSVKGRFTISRDNAKNTVYLQMNSLKPEDTAVYYCATSVDRALYTQTRGDYDYWGQGTQVTVSS", "polyreactivity (PSR sort gate)": "low polyreactivity"},
      {"sequence": "QVQLVESGGGLVQAGGILRLSCAASGLIFITYAMGWYRQAPGKERELVATITLRGGSTYYADSVKGRFTISRDNAKNTVYLQMNSLKPEDTAVYYCAADVGYWGRSRGYPSDDYDYWGQGTQVTVSS", "polyreactivity (PSR sort gate)": "low polyreactivity"},
      {"sequence": "QVQLVESGGGLVQAGGILRLSCAASGNILRFNARGWYRPAPGKEMELVAAISRSGGTTYYADSEKGRFTISRDYAKNTVYLQMNSLKPEDTAVYYCADRYRYGESPGYYWGHGTQVTVSS", "polyreactivity (PSR sort gate)": "high polyreactivity"},
      {"sequence": "QVQLVESGGGLVQAGGILRLSCAASGRIFGSYAMGWYRQAPGKERELVAVITKRGDSTYYADSVKGRFTISRDNAKNTVYLQMNSLKPEDTAVYYCNARVYPGYSFWAVFGYDYWGQGTQVTVSS", "polyreactivity (PSR sort gate)": "low polyreactivity"},
      {"sequence": "QVQLVESGGGLVQAGGILRLSCAASGRIFHRYTMGWYRQAPGKEREFVAAITTRAGSTYYADSVKGRFTISRDNAKYTVYLQMNSLKPEDTAVYYCNIRRHSLFGGTTTRYDYWGQGTQVTVSS", "polyreactivity (PSR sort gate)": "high polyreactivity"},
      {"sequence": "QVQLVESGGGLVQAGGILRLSCAASGRIFLTYAMGWYRQAPGKERELVAAIRSRSGTTYYADSVKGRFTISRDNAKNTVYLQMNSMKPEDTAVYYCAAGGKSRSYYWGQGTQVTVSS", "polyreactivity (PSR sort gate)": "high polyreactivity"}
    ]}
  ]
}
